What was measured:
[1] = biological target: T1, SSX-9 peptide on HLA-A*02:01 (human); assay: cytokine release
T1 peptide: KSSEKIIYV

[2] = biological target: T2, SSX-7 peptide on HLA-A*02:01 (human); assay: cytokine release
T2 peptide: KSLEKISYV

[3] = biological target: T3, SSX-5 peptide on HLA-A*02:01 (human); assay: cytokine release
T3 peptide: KASEKIIYV

[4] = biological target: T4, SSX-3 peptide on HLA-A*02:01 (human); assay: cytokine release
T4 peptide: KVSEKIVYV

[5] = biological target: T5, SSX-10 peptide on HLA-A*02:01 (human); assay: cytokine release
T5 peptide: KASEKILYV

[6] = biological target: T6, SSX-4 peptide on HLA-A*02:01 (human); assay: cytokine release
T6 peptide: KSSEKIVYV

[7] = biological target: T7, SSX-1; SSX-8 peptide on HLA-A*02:01 (human); assay: cytokine release
T7 peptide: KYSEKISYV

[8] = biological target: T8, SSX-6 peptide on HLA-A*02:01 (human); assay: cytokine release
T8 peptide: KFSEKISCV

[9] = biological target: T9, SSX-2 peptide on HLA-A*02:01 (human); assay: multimer staining
T9 peptide: KASEKIFYV

binding result [1]: recognises
binding result [2]: no recognition
binding result [3]: recognises
binding result [4]: recognises
binding result [5]: recognises
binding result [6]: recognises
binding result [7]: no recognition
binding result [8]: no recognition
binding result [9]: recognises
B1: SSX-2 TCR (TCR, V domains shown)
Valpha: AQKITQTQPGMFVQEKEAVTLDCTYDTSDPSYGLFWYKQPSSGEMIFLIYQGSYDQQNATEGRYSLNFQKARKSANLVISASQLGDSAMYFCAMTSGFGNEKLTFGTGTRLTIIP
Vbeta: DAMVIQNPRYQVTQFGKPVTLSCSQTLNHNVMYWYQQKSSQAPKLLFHYYDKDFNNEADTPDNFQSRRPNTSFCFLDIRSPGLGDAAMYLCATSRGQGGQPQHFGDGTRLSIL
